Values of other authors in article PMC4589137.

Molecular target: α-melanocyte stimulating hormone (α-MSH) (UniProt P01189)

In the case of “melanocortin 1 receptor (MC1R) (from UniProt Q01727)”, the Kd is listed as 0.4 nM.
